Results reported in the supplement of paper PMC9112550, “Optimization of the antimicrobial peptide Bac7 by deep mutational scanning” (BMC Biology, 2022).

Test system: Escherichia coli TOP10
Assay: shrunken log2 fold change of peptide-encoding DNA abundance (4.5 h post-induction vs induction); higher = less antimicrobial activity (less host growth inhibition)
Details: time post-induction: 4.5 h; library: site-saturation at positions 5, 18, 19, 20
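Note: peptides expressed intracellularly from a pBAD plasmid library in pooled LB shake-flask culture, induced with 0.3% L-arabinose, DNA abundance read by NGS, three biological replicates, DESeq2 with apeglm shrinkage.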

Sequence	shrunken log2 fold change
RRIRQRPPRLPRPRPRPNGFPRP	-0.258
RRIRQRPPRLPRPRPRPNGIPRP	-0.0272
RRIRQRPPRLPRPRPRPNHDPRP	-0.509
RRIRQRPPRLPRPRPRPNIEPRP	-0.0328
RRIRQRPPRLPRPRPRPNKLPRP	-0.0898
RRIRQRPPRLPRPRPRPNKRPRP	0.0702
RRIRQRPPRLPRPRPRPNLYPRP	-0.647
RRIRQRPPRLPRPRPRPNMVPRP	-0.0131
RRIRQRPPRLPRPRPRPNMYPRP	-0.433
RRIRQRPPRLPRPRPRPNNEPRP	-0.885
RRIRQRPPRLPRPRPRPNNGPRP	-0.361
RRIRQRPPRLPRPRPRPNNIPRP	-0.732
RRIRQRPPRLPRPRPRPNPCPRP	-0.349
RRIRQRPPRLPRPRPRPNPLPRP	-0.0379
RRIRQRPPRLPRPRPRPNRNPRP	-0.658
RRIRQRPPRLPRPRPRPNSLPRP	-0.489
RRIRQRPPRLPRPRPRPNVSPRP	0.00422
RRIRQRPPRLPRPRPRPNVWPRP	0.134
RRIRQRPPRLPRPRPRPNYHPRP	-0.676
RRIRQRPPRLPRPRPRPNYNPRP	-0.0928
RRIRQRPPRLPRPRPRPPACPRP	0.162
RRIRQRPPRLPRPRPRPPAFPRP	0.379
RRIRQRPPRLPRPRPRPPALPRP	-0.179
RRIRQRPPRLPRPRPRPPANPRP	0.409
RRIRQRPPRLPRPRPRPPAYPRP	0.106

Sequence	shrunken log2 fold change
RRIRQRPPRLPRPRPRPPDNPRP	0.00496
RRIRQRPPRLPRPRPRPPDYPRP	0.00906
RRIRQRPPRLPRPRPRPPHDPRP	1.12
RRIRQRPPRLPRPRPRPPIFPRP	0.163
RRIRQRPPRLPRPRPRPPKKPRP	-0.0474
RRIRQRPPRLPRPRPRPPLYPRP	0.233
RRIRQRPPRLPRPRPRPPMGPRP	0.187
RRIRQRPPRLPRPRPRPPPTPRP	0.913
RRIRQRPPRLPRPRPRPPQRPRP	0.655
RRIRQRPPRLPRPRPRPPSSPRP	0.0251
RRIRQRPPRLPRPRPRPPVEPRP	0.265
RRIRQRPPRLPRPRPRPPVQPRP	0.301
RRIRQRPPRLPRPRPRPPVSPRP	-0.203
RRIRQRPPRLPRPRPRPPVYPRP	-0.0643
RRIRQRPPRLPRPRPRPPWIPRP	-0.145
RRIRQRPPRLPRPRPRPPWKPRP	0.467
RRIRQRPPRLPRPRPRPPWQPRP	0.729
RRIRQRPPRLPRPRPRPPWWPRP	0.498
RRIRQRPPRLPRPRPRPPYCPRP	0.0161
RRIRQRPPRLPRPRPRPPYDPRP	-0.152
RRIRQRPPRLPRPRPRPPYVPRP	0.191
RRIRQRPPRLPRPRPRPQAKPRP	0.0346
RRIRQRPPRLPRPRPRPQARPRP	-0.0121
RRIRQRPPRLPRPRPRPQAWPRP	0.0305
RRIRQRPPRLPRPRPRPQCFPRP	-1.14

Sequence	shrunken log2 fold change
RRIRQRPPRLPRPRPRPQDLPRP	-0.243
RRIRQRPPRLPRPRPRPQDMPRP	0.0179
RRIRQRPPRLPRPRPRPQDPPRP	-0.239
RRIRQRPPRLPRPRPRPQDQPRP	-0.276
RRIRQRPPRLPRPRPRPQDSPRP	-0.297
RRIRQRPPRLPRPRPRPQFWPRP	0.681
RRIRQRPPRLPRPRPRPQGDPRP	-0.00865
RRIRQRPPRLPRPRPRPQGRPRP	-0.0215
RRIRQRPPRLPRPRPRPQHQPRP	0.26
RRIRQRPPRLPRPRPRPQHRPRP	-0.0379
RRIRQRPPRLPRPRPRPQIKPRP	-0.498
RRIRQRPPRLPRPRPRPQKAPRP	-0.109
RRIRQRPPRLPRPRPRPQLLPRP	-0.00691
RRIRQRPPRLPRPRPRPQLNPRP	-0.367
RRIRQRPPRLPRPRPRPQLVPRP	0.128
RRIRQRPPRLPRPRPRPQMKPRP	-0.264
RRIRQRPPRLPRPRPRPQMSPRP	-0.0844
RRIRQRPPRLPRPRPRPQMWPRP	0.0113
RRIRQRPPRLPRPRPRPQNGPRP	0.111
RRIRQRPPRLPRPRPRPQPIPRP	0.136
RRIRQRPPRLPRPRPRPQQFPRP	0.0507
RRIRQRPPRLPRPRPRPQSAPRP	-0.08
RRIRQRPPRLPRPRPRPQSIPRP	-0.0322
RRIRQRPPRLPRPRPRPQSVPRP	0.0191
RRIRQRPPRLPRPRPRPQTAPRP	-0.000297

Sequence	shrunken log2 fold change
RRIRQRPPRLPRPRPRPQVAPRP	-0.156
RRIRQRPPRLPRPRPRPQVGPRP	0.331
RRIRQRPPRLPRPRPRPQVNPRP	-0.499
RRIRQRPPRLPRPRPRPQWRPRP	0.419
RRIRQRPPRLPRPRPRPQYYPRP	-0.243
RRIRQRPPRLPRPRPRPRALPRP	0.125
RRIRQRPPRLPRPRPRPRAQPRP	-0.0701
RRIRQRPPRLPRPRPRPRATPRP	0.138
RRIRQRPPRLPRPRPRPRCIPRP	-0.188
RRIRQRPPRLPRPRPRPRDAPRP	0.494
RRIRQRPPRLPRPRPRPRDKPRP	0.00325
RRIRQRPPRLPRPRPRPRDVPRP	-0.0705
RRIRQRPPRLPRPRPRPRDYPRP	0.0272
RRIRQRPPRLPRPRPRPRENPRP	0.0469
RRIRQRPPRLPRPRPRPRFSPRP	0.0453
RRIRQRPPRLPRPRPRPRFVPRP	0.165
RRIRQRPPRLPRPRPRPRGWPRP	0.267
RRIRQRPPRLPRPRPRPRIPPRP	0.206
RRIRQRPPRLPRPRPRPRKTPRP	0.00489
RRIRQRPPRLPRPRPRPRLHPRP	0.0368
RRIRQRPPRLPRPRPRPRMKPRP	-0.249
RRIRQRPPRLPRPRPRPRNHPRP	-0.137
RRIRQRPPRLPRPRPRPRPRPRP	0.414
RRIRQRPPRLPRPRPRPRQHPRP	-0.141
RRIRQRPPRLPRPRPRPRRTPRP	0.655

Sequence	shrunken log2 fold change
RRIRQRPPRLPRPRPRPRSNPRP	-0.108
RRIRQRPPRLPRPRPRPRTRPRP	0.225
RRIRQRPPRLPRPRPRPRYQPRP	-0.0107
RRIRQRPPRLPRPRPRPRYWPRP	-0.0336
RRIRQRPPRLPRPRPRPSAKPRP	0.104
RRIRQRPPRLPRPRPRPSCNPRP	-0.683
RRIRQRPPRLPRPRPRPSDIPRP	-0.0397
RRIRQRPPRLPRPRPRPSDNPRP	-0.394
RRIRQRPPRLPRPRPRPSDPPRP	0.114
RRIRQRPPRLPRPRPRPSEQPRP	0.155
RRIRQRPPRLPRPRPRPSFTPRP	-1.12
RRIRQRPPRLPRPRPRPSGFPRP	-0.102
RRIRQRPPRLPRPRPRPSGGPRP	0.0203
RRIRQRPPRLPRPRPRPSGLPRP	-0.0802
RRIRQRPPRLPRPRPRPSKSPRP	-0.332
RRIRQRPPRLPRPRPRPSLGPRP	-0.162
RRIRQRPPRLPRPRPRPSLMPRP	-0.112
RRIRQRPPRLPRPRPRPSLSPRP	-0.227
RRIRQRPPRLPRPRPRPSNLPRP	-0.11
RRIRQRPPRLPRPRPRPSPIPRP	-0.0339
RRIRQRPPRLPRPRPRPSPMPRP	0.0696
RRIRQRPPRLPRPRPRPSPNPRP	0.16
RRIRQRPPRLPRPRPRPSPPPRP	0.169
RRIRQRPPRLPRPRPRPSQIPRP	-0.0855
RRIRQRPPRLPRPRPRPSRPPRP	0.37

Sequence	shrunken log2 fold change
RRIRQRPPRLPRPRPRPSRRPRP	0.0103
RRIRQRPPRLPRPRPRPSSSPRP	-1.39
RRIRQRPPRLPRPRPRPSVKPRP	-0.0362
RRIRQRPPRLPRPRPRPSWAPRP	-0.0374
RRIRQRPPRLPRPRPRPSWKPRP	-0.244
RRIRQRPPRLPRPRPRPSYIPRP	-0.417
RRIRQRPPRLPRPRPRPTCAPRP	0.406
RRIRQRPPRLPRPRPRPTDAPRP	0.0862
RRIRQRPPRLPRPRPRPTDSPRP	-0.0401
RRIRQRPPRLPRPRPRPTDYPRP	-0.116
RRIRQRPPRLPRPRPRPTEWPRP	0.446
RRIRQRPPRLPRPRPRPTFIPRP	-0.0494
RRIRQRPPRLPRPRPRPTGRPRP	0.146
RRIRQRPPRLPRPRPRPTHAPRP	0.437
RRIRQRPPRLPRPRPRPTIIPRP	-0.244
RRIRQRPPRLPRPRPRPTINPRP	-0.362
RRIRQRPPRLPRPRPRPTISPRP	-0.379
RRIRQRPPRLPRPRPRPTKPPRP	0.0859
RRIRQRPPRLPRPRPRPTLDPRP	0.476
RRIRQRPPRLPRPRPRPTLMPRP	0.369
RRIRQRPPRLPRPRPRPTLPPRP	1.69
RRIRQRPPRLPRPRPRPTLWPRP	0.0794
RRIRQRPPRLPRPRPRPTMIPRP	0.151
RRIRQRPPRLPRPRPRPTMNPRP	-0.298
RRIRQRPPRLPRPRPRPTMWPRP	0.16
